Series [1] deals with the molecule itself. Put plainly: SEC; analytical gel filtration, Superdex 75 10/300 increase, 25 mM Tris pH 8.0, 150 mM NaCl, 2 mM DTT; 6 mg/ml, 100 μl injected; self-association, dimer or monomer by elution volume. A general note: In gel filtration, larger molecules generally elute earlier.
The target in series [2] is Flag-AFF4 F1014A, full length (human) (UniProt Q9UHB7).
Series [3] has as its target Flag-AFF4 Y1096A, full length (human) (UniProt Q9UHB7).

B1: human AFF4-THD (902-1163), wild type (domain or fragment, UniProt Q9UHB7 902-1163, looked up)
chain: RRTKLVFDDRNYSADHYLQEAKKLKHNADALSDRFEKAVYYLDAVVSFIECGNALEKNAQESKSPFPMYSETVDLIKYTMKLKNYLAPDATAADKRLTVLCLRCESLLYLRLFKLKKENALKYSKTLTEHLKNSYNNSQAPSPGLGSKAVGMPSPVSPKLSPGNSGNYSSGASSASASGSSVTIPQKIHQMAASYVQVTSNFLYATEIWDQAEQLSKEQKEFFAELDKVMGPLIFNASIMTDLVRYTRQGLHWLRQDAKLIS
notes: AFF4 THD (TPRL with Handle Region Dimerization Domain, C-terminal homology domain), human, residues 902-1163; A selenomethionyl form was used for phasing only; The general purification text tells of TEV digestion and removal of the His6-tag, but only the N-terminal tag of AFF1-THD is called removable; also called AFF-THD; THD of AFF4; source: E. coli BL21 (DE3), purified (Ni-NTA, Hi-Trap SP HP, …)
The term stoichiometry N denotes a count of units in the complex or per binding partner. As for B1, the “stoichiometry N” value in series [1] amounted to 2.

B2: AFF4-THD T1100A+Y1096F (domain or fragment, human, UniProt Q9UHB7 902-1163, looked up)
chain: RRTKLVFDDRNYSADHYLQEAKKLKHNADALSDRFEKAVYYLDAVVSFIECGNALEKNAQESKSPFPMYSETVDLIKYTMKLKNYLAPDATAADKRLTVLCLRCESLLYLRLFKLKKENALKYSKTLTEHLKNSYNNSQAPSPGLGSKAVGMPSPVSPKLSPGNSGNYSSGASSASASGSSVTIPQKIHQMAASFVQVASNFLYATEIWDQAEQLSKEQKEFFAELDKVMGPLIFNASIMTDLVRYTRQGLHWLRQDAKLIS
notes: AFF4 THD, human, residues 902-1163, with T1100A and Y1096F; PDB 6K7P is the wild-type parent of the same limits; source: E. coli BL21 (DE3), purified (Ni-NTA, Hi-Trap SP HP, Superdex 200)
As to B2, the binding result in series [1] was “binds”.

B3: AFF4-THD V1097A (domain or fragment, human, UniProt Q9UHB7 902-1163, looked up)
chain: RRTKLVFDDRNYSADHYLQEAKKLKHNADALSDRFEKAVYYLDAVVSFIECGNALEKNAQESKSPFPMYSETVDLIKYTMKLKNYLAPDATAADKRLTVLCLRCESLLYLRLFKLKKENALKYSKTLTEHLKNSYNNSQAPSPGLGSKAVGMPSPVSPKLSPGNSGNYSSGASSASASGSSVTIPQKIHQMAASYAQVTSNFLYATEIWDQAEQLSKEQKEFFAELDKVMGPLIFNASIMTDLVRYTRQGLHWLRQDAKLIS
notes: AFF4 THD, human, residues 902-1163, with V1097A; PDB 6K7P is the wild-type parent of the same limits; also called AFF4-THD^Val1097A; Val1097A; source: E. coli BL21 (DE3), purified (Ni-NTA, Hi-Trap SP HP, Superdex 200)
Take B3: in series [1], the binding result is recorded as “binds”.

B4: AFF4-THD Y1024A (domain or fragment, human, UniProt Q9UHB7 902-1163, looked up)
chain: RRTKLVFDDRNYSADHYLQEAKKLKHNADALSDRFEKAVYYLDAVVSFIECGNALEKNAQESKSPFPMYSETVDLIKYTMKLKNYLAPDATAADKRLTVLCLRCESLLYLRLFKLKKENALKASKTLTEHLKNSYNNSQAPSPGLGSKAVGMPSPVSPKLSPGNSGNYSSGASSASASGSSVTIPQKIHQMAASYVQVTSNFLYATEIWDQAEQLSKEQKEFFAELDKVMGPLIFNASIMTDLVRYTRQGLHWLRQDAKLIS
notes: AFF4 THD, human, residues 902-1163, with Y1024A; PDB 6K7P is the wild-type parent of the same limits; source: E. coli BL21 (DE3), purified (Ni-NTA, Hi-Trap SP HP, Superdex 200)
For the molecule B4, the binding result in series [1] was “binds”.

B5: AFF4-THD S1025A (domain or fragment, human, UniProt Q9UHB7 902-1163, looked up)
chain: RRTKLVFDDRNYSADHYLQEAKKLKHNADALSDRFEKAVYYLDAVVSFIECGNALEKNAQESKSPFPMYSETVDLIKYTMKLKNYLAPDATAADKRLTVLCLRCESLLYLRLFKLKKENALKYAKTLTEHLKNSYNNSQAPSPGLGSKAVGMPSPVSPKLSPGNSGNYSSGASSASASGSSVTIPQKIHQMAASYVQVTSNFLYATEIWDQAEQLSKEQKEFFAELDKVMGPLIFNASIMTDLVRYTRQGLHWLRQDAKLIS
notes: AFF4 THD, human, residues 902-1163, with S1025A; PDB 6K7P is the wild-type parent of the same limits; source: E. coli BL21 (DE3), purified (Ni-NTA, Hi-Trap SP HP, Superdex 200)
Take B5: the binding result in series [1] was “binds”.

B6: Flag-AFF4 F1014A, full length (natural protein)
chain: MNREDRNVLRMKERERRNQEIQQGEDAFPPSSPLFAEPYKVTSKEDKLSSRIQSMLGNYDEMKDFIGDRSIPKLVAIPKPTVPPSADEKSNPNFFEQRHGGSHQSSKWTPVGPAPSTSQSQKRSSGLQSGHSSQRTSAGSSSGTNSSGQRHDRESYNNSGSSSRKKGQHGSEHSKSRSSSPGKPQAVSSLNSSHSRSHGNDHHSKEHQRSKSPRDPDANWDSPSRVPFSSGQHSTQSFPPSLMSKSNSMLQKPTAYVRPMDGQESMEPKLSSEHYSSQSHGNSMTELKPSSKAHLTKLKIPSQPLDASASGDVSCVDEILKEMTHSWPPPLTAIHTPCKTEPSKFPFPTKESQQSNFGTGEQKRYNPSKTSNGHQSKSMLKDDLKLSSSEDSDGEQDCDKTMPRSTPGSNSEPSHHNSEGADNSRDDSSSHSGSESSSGSDSESESSSSDSEANEPSQSASPEPEPPPTNKWQLDNWLNKVNPHKVSPASSVDSNIPSSQGYKKEGREQGTGNSYTDTSGPKETSSATPGRDSKTIQKGSESGRGRQKSPAQSDSTTQRRTVGKKQPKKAEKAAAEEPRGGLKIESETPVDLASSMPSSRHKAATKGSRKPNIKKESKSSPRPTAEKKKYKSTSKSSQKSREIIETDTSSSDSDESESLPPSSQTPKYPESNRTPVKPSSVEEEDSFFRQRMFSPMEEKELLSPLSEPDDRYPLIVKIDLNLLTRIPGKPYKETEPPKGEKKNVPEKHTREAQKQASEKVSNKGKRKHKNEDDNRASESKKPKTEDKNSAGHKPSSNRESSKQSAAKEKDLLPSPAGPVPSKDPKTEHGSRKRTISQSSSLKSSSNSNKETSGSSKNSSSTSKQKKTEGKTSSSSKEVKEKAPSSSSNCPPSAPTLDSSKPRRTKLVFDDRNYSADHYLQEAKKLKHNADALSDRFEKAVYYLDAVVSFIECGNALEKNAQESKSPFPMYSETVDLIKYTMKLKNYLAPDATAADKRLTVLCLRCESLLYLRLAKLKKENALKYSKTLTEHLKNSYNNSQAPSPGLGSKAVGMPSPVSPKLSPGNSGNYSSGASSASASGSSVTIPQKIHQMAASYVQVTSNFLYATEIWDQAEQLSKEQKEFFAELDKVMGPLIFNASIMTDLVRYTRQGLHWLRQDAKLIS
Regarding B6, the HIV-LTR-luciferase reporter in NH1 cells, overexpressed Flag-AFF4 mutant against wild type (% less than wild type) in series [2] was 10.

B7: Flag-AFF4 Y1096A, full length (natural protein)
chain: MNREDRNVLRMKERERRNQEIQQGEDAFPPSSPLFAEPYKVTSKEDKLSSRIQSMLGNYDEMKDFIGDRSIPKLVAIPKPTVPPSADEKSNPNFFEQRHGGSHQSSKWTPVGPAPSTSQSQKRSSGLQSGHSSQRTSAGSSSGTNSSGQRHDRESYNNSGSSSRKKGQHGSEHSKSRSSSPGKPQAVSSLNSSHSRSHGNDHHSKEHQRSKSPRDPDANWDSPSRVPFSSGQHSTQSFPPSLMSKSNSMLQKPTAYVRPMDGQESMEPKLSSEHYSSQSHGNSMTELKPSSKAHLTKLKIPSQPLDASASGDVSCVDEILKEMTHSWPPPLTAIHTPCKTEPSKFPFPTKESQQSNFGTGEQKRYNPSKTSNGHQSKSMLKDDLKLSSSEDSDGEQDCDKTMPRSTPGSNSEPSHHNSEGADNSRDDSSSHSGSESSSGSDSESESSSSDSEANEPSQSASPEPEPPPTNKWQLDNWLNKVNPHKVSPASSVDSNIPSSQGYKKEGREQGTGNSYTDTSGPKETSSATPGRDSKTIQKGSESGRGRQKSPAQSDSTTQRRTVGKKQPKKAEKAAAEEPRGGLKIESETPVDLASSMPSSRHKAATKGSRKPNIKKESKSSPRPTAEKKKYKSTSKSSQKSREIIETDTSSSDSDESESLPPSSQTPKYPESNRTPVKPSSVEEEDSFFRQRMFSPMEEKELLSPLSEPDDRYPLIVKIDLNLLTRIPGKPYKETEPPKGEKKNVPEKHTREAQKQASEKVSNKGKRKHKNEDDNRASESKKPKTEDKNSAGHKPSSNRESSKQSAAKEKDLLPSPAGPVPSKDPKTEHGSRKRTISQSSSLKSSSNSNKETSGSSKNSSSTSKQKKTEGKTSSSSKEVKEKAPSSSSNCPPSAPTLDSSKPRRTKLVFDDRNYSADHYLQEAKKLKHNADALSDRFEKAVYYLDAVVSFIECGNALEKNAQESKSPFPMYSETVDLIKYTMKLKNYLAPDATAADKRLTVLCLRCESLLYLRLFKLKKENALKYSKTLTEHLKNSYNNSQAPSPGLGSKAVGMPSPVSPKLSPGNSGNYSSGASSASASGSSVTIPQKIHQMAASAVQVTSNFLYATEIWDQAEQLSKEQKEFFAELDKVMGPLIFNASIMTDLVRYTRQGLHWLRQDAKLIS
In series [3], B7 displayed an HIV-LTR-luciferase reporter in NH1 cells, overexpressed Flag-AFF4 mutant against wild type (fold less than wild type) of 1.

B8: AFF1-THD (953-1210), wild type (domain or fragment, UniProt P51825 953-1210, looked up)
chain: GKPQVKFDKQQADLHMREAKKMKQKAELMTDRVGKAFKYLEAVLSFIECGIATESESQSSKSAYSVYSETVDLIKFIMSLKSFSDATAPTQEKIFAVLCMRCQSILNMAMFRCKKDIAIKYSRTLNKHFESSSKVAQAPSPCIASTGTPSPLSPMPSPASSVGSQSSAGSVGSSGVAATISTPVTIQNMTSSYVTITSHVLTAFDLWEQAEALTRKNKEFFARLSTNVCTLALNSSLVDLVHYTRQGFQQLQELTKTP
notes: AFF1 THD, residues 953-1210; the limits 953-1210 fit human AFF1; also called wild-type AFF1-THD; source: E. coli BL21 (DE3), purified (Ni-NTA, Hi-Trap SP HP, TEV digestion, Superdex 200); not shown: His6, N-terminal, cleaved
In the case of B8, in series [1], the “stoichiometry N” value was 2.

B9: AFF1-THD F1063A+Y1145A (domain or fragment, UniProt P51825 953-1210, looked up)
chain: GKPQVKFDKQQADLHMREAKKMKQKAELMTDRVGKAFKYLEAVLSFIECGIATESESQSSKSAYSVYSETVDLIKFIMSLKSFSDATAPTQEKIFAVLCMRCQSILNMAMARCKKDIAIKYSRTLNKHFESSSKVAQAPSPCIASTGTPSPLSPMPSPASSVGSQSSAGSVGSSGVAATISTPVTIQNMTSSAVTITSHVLTAFDLWEQAEALTRKNKEFFARLSTNVCTLALNSSLVDLVHYTRQGFQQLQELTKTP
notes: AFF1 THD, residues 953-1210, with F1063A and Y1145A; source: E. coli BL21 (DE3), purified (Ni-NTA, Hi-Trap SP HP, TEV digestion, Superdex 200); not shown: His6, N-terminal, cleaved
B9: the binding result in series [1] is recorded as “binds”.

B10: AFF1-THD F1063A (domain or fragment, UniProt P51825 953-1210, looked up)
chain: GKPQVKFDKQQADLHMREAKKMKQKAELMTDRVGKAFKYLEAVLSFIECGIATESESQSSKSAYSVYSETVDLIKFIMSLKSFSDATAPTQEKIFAVLCMRCQSILNMAMARCKKDIAIKYSRTLNKHFESSSKVAQAPSPCIASTGTPSPLSPMPSPASSVGSQSSAGSVGSSGVAATISTPVTIQNMTSSYVTITSHVLTAFDLWEQAEALTRKNKEFFARLSTNVCTLALNSSLVDLVHYTRQGFQQLQELTKTP
notes: AFF1 THD, residues 953-1210, with F1063A; also called AFF1^F1063A; source: E. coli BL21 (DE3), purified (Ni-NTA, Hi-Trap SP HP, TEV digestion, Superdex 200); not shown: His6, N-terminal, cleaved
On to B10, for which the binding result in series [1] is listed as “binds”.

B11: AFF1-THD Y1145A (domain or fragment, UniProt P51825 953-1210, looked up)
chain: GKPQVKFDKQQADLHMREAKKMKQKAELMTDRVGKAFKYLEAVLSFIECGIATESESQSSKSAYSVYSETVDLIKFIMSLKSFSDATAPTQEKIFAVLCMRCQSILNMAMFRCKKDIAIKYSRTLNKHFESSSKVAQAPSPCIASTGTPSPLSPMPSPASSVGSQSSAGSVGSSGVAATISTPVTIQNMTSSAVTITSHVLTAFDLWEQAEALTRKNKEFFARLSTNVCTLALNSSLVDLVHYTRQGFQQLQELTKTP
notes: AFF1 THD, residues 953-1210, with Y1145A; also called AFF1^Y1145A; source: E. coli BL21 (DE3), purified (Ni-NTA, Hi-Trap SP HP, TEV digestion, Superdex 200); not shown: His6, N-terminal, cleaved
For the molecule B11, the binding result in series [1] is “binds”.
